One protein from article PMC10575581 (Science Advances, 2023) can be followed below.

This data set deals with the molecule itself. As to the kind of experiment: cryo-EM structure; Der^Δ-p97^Δ complex from Sf9 with ATP·BeFx added through the whole purification; closed class 3.65 Å and open (state U) class 4.51 Å.

B1: human Derlin-1 Δ215–239, C-terminal twin strep tag (Sf9) (natural protein, UniProt Q9BUN8-1 1-251, looked up)
chain: MSDIGDWFRSIPAITRYWFAATVAVPLVGKLGLISPAYLFLWPEAFLYRFQIWRPITATFYFPVGPGTGFLYLVNLYFLYQYSTRLETGAFDGRPADYLFMLLFNWICIVITGLAMDMQLLMIPLIMSVLYVWAQLNRDMIVSFWFGTRFKACYLPWVILGFNYIIGGSVINELIGNLVGHLYFFLMFRYPMDLGGRNFLSTPQFLYRWLPSRRHNWGQGFRLGDQ
notes: Derlin-1, human, cDNA NCBI NM_024295.6, whole protein with residues 215 to 239 (loop between TM6 and the SHP box) deleted; a PreScission Protease cleavage site stands before the C-terminal twin strep tag; Cleavage of the tag is not described; also called Der^Δ; truncated Derlin-1; source: Sf9, baculovirus (pFastBac-Dual), coexpressed with p97 Δ1–20, co-purified (Strep-Tactin, SEC in GDN); not …
On to B1, for which the stoichiometry N (in general, the number of molecules, sites or subunits per partner or assembly) was determined as 4.
